Data from paper PMC7756140.

Legend:
Assay in all cases: MST
[1] = biological target: CCR5^QTY (SF9)
[2] = biological target: CCR5^QTY – SZ218a (SF9)
[3] = biological target: CCR5^QTY – SZ218a (E. coli)
[4] = biological target: CCR5^QTY – SZ190b (SF9)
[5] = biological target: CCR5^QTY (E. coli)
[6] = biological target: CCR5^QTY – SZ190b (E. coli)
[7] = biological target: CXCR4^QTY – SZ158a (E. coli)
[8] = biological target: CXCR4^QTY (E. coli)

Row | Substance | Kd [1] [nM] | Kd [2] [nM] | Kd [3] [nM] | Kd [4] [nM] | Kd [5] [nM] | Kd [6] [nM] | Kd [7] [nM] | Kd [8] [nM]
1 | CCL5 (from UniProt P13501 24-91) (ligand) | 41.1 | 51.7 | 87.7 | 37.8 | 6.8 | 55.8 |  | 
2 | HIV-1 coat glycoprotein gp41-120 |  |  |  |  |  |  | 200 | 7
